Data published in patent EP2814500B1.

Target: mouse glycophorin-A (GYPA) on the mouse erythrocyte surface (mouse) (UniProt P14220)
Assay: equilibrium binding to mouse erythrocytes, flow cytometry, one-site binding fit

ERY1-OVA (ovalbumin chemically conjugated with ERY1 peptide through SMCC), sequence (P01012 2-386, form in doubt): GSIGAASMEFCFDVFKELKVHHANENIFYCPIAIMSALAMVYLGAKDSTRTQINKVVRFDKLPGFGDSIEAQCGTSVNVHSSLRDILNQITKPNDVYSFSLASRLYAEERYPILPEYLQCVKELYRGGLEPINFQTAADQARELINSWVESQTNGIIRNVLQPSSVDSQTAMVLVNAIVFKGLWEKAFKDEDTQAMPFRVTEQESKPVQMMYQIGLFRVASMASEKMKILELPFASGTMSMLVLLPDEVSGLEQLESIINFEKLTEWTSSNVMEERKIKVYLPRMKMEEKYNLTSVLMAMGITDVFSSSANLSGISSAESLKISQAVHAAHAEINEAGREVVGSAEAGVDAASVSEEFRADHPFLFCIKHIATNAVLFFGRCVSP

Kd: 6.2 nM
Substance: ERY1-OVA (ovalbumin chemically conjugated with ERY1 peptide through SMCC) (from UniProt P01012 2-386)
